The values that follow come from the NTF2 design screens of Basanta et al. (2020).

The series can be described thus: protease stability score; higher = more stable; yeast display proteolysis, trypsin and chymotrypsin.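 Note: relative to predicted unfolded state with 0 unfolded-like and 1 meaning tenfold more protease.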
For “DEEERLSREILELNIEVLETGNEHVVRELLDPHVKMEVGDKEYHGREEFVTLFHHFGIDHFHIHEIRFIGNKAEMHVSSEINGRRFSILIIAHKVNGKWIMHTMHVE”, the protease stability score was -0.037.

In the case of “DEEERLTRDWAKQWIHFLETGDEDRLMELADPHVRIDVNGQEFHGREQFNKFMSHLTTHARFETKEVQVIGNKTHIDTRMSIDGKTTETLVILIIWNGRLKELRIHHH”, the protease stability score turned out to be 1.47.

Sequence “DEEERLVRKFSSVVKHIFKTGDWKRFTELADPDTLLIIIIGDKEIRHHGREEITHALREWFRILGIDHFHIRDERYQGDKVELDTEVRYNGQTHDFVIEVIVVDGRAKEFKIRFR” showed a protease stability score of 1.67.

“DEEERLWEAAEYFFIHLLQTGDEEMVTKYADPHVRSDVNGVEYHGMNQFVEEWRRLVERIDHLESHHIDRVEIYNGVVTVHLRVHGEVNGKRDTFRVIIFMYKYNGQWRIHSYEFK”: the protease stability score amounted to 1.1.

“DEEERLWHEFLEEFLRYIITGNWKKIADLADPNVRYQQGEKTNIGREDFERHFEKTYNDLGVDHFEIDHVDIQGNKIEIHLWLRVNGQEHKIHIDVKVVNGRIKYVRIEYE” gave a protease stability score of 1.5.

The sequence “DEEERMAHEVAEILLRSLHTGDWRRDMDLLDPHVRFDFNGVHLHGREEWLRHLHEFWRKFGVEFFDLHEDNISIQGDKAIMDGQIEFNGRRTKQKLEITVIDGRVKEVRVEIH” had a protease stability score of 0.59.

Sequence “DEEERQLEEFLELLVEALRTGDWHTLMRMLDPNVKVHIDGKDIHGREEHIRLHIEQWERLGYERIEFRVRIDEVHFINGVVEVDYTQIDQFDGQRLQLRVRIFLLKFDGRWSIDKVVFR” showed a protease stability score of 2.46.

“DEEERQVLLLAKILIHLYYTGDEESFRKLLDPHVRIIWNGRDFVGRENWYELLHRVLRHWRIHHIDIHDFDVQGNKARFHTQIVVDVNGKHIRSHTEVIYVVVNGRVDEIEVIIR” came in with a protease stability score of 2.37.

“DEEERRDREWLHRMLHVHHTGDEEMFKRLADPHTLLRVDGKDVHGREEIAHFIRERGYRVEVHARHIEIINGRIDNETTVIVRINGRTIHEETHLHIRKINGKWILTHWHIE” gave a protease stability score of 0.654.

In turn, “DEEERRLHEIAELVVHRLVTGDEDTLNKLFDPNTRFELIFNGQNFELHGREALMEWLQRRRNVREKHEVRRIEYQGDKLHVDGTLIIEYGDKRRESEVDLRIRVVNGRVHTIDLRLK” had a protease stability score of 1.48.

For “DEEERRTREFTEHVLHAEETGDFDSFVELADPNVRMRIGDKEIHGMEMVAKWLVHMRIKHFNLHRIEIQGEKVHIDGEIKGRFNGRDTETKVIFHIVVIDGRLHSQIIQIH”, the protease stability score was determined as 1.54.

“DEEERSAKDFSERVFEEDRTGDEERWERLADPNVRLDINGKEHHGRELVMKYRLEFLRRVKNMVIRLEHIEIRVFDGKLTLHIHGVINVDGKTIHFDLIIIVRKVDGRWRIDEVIIEIK” came in with a protease stability score of 1.4.

Take “DEEERSFELALRLLERTIKTGNEDDWRRMLDPHTKIIIGDKEFHGMEDAEKILREHIHRIDHFHDIHLHRIRVQGDKIHMDVRLDGRINGRRDILIARFTVVKVDGRWVIHQVESH”: the protease stability score came to 1.22.

On to “DEEERVRDEIERLIEESLRTGDWRHLSELFDPNVRMEVGDKDIIGRERVHQAIHDFWKSFGADHRHLHDIEEINGVVIMHMRYRVGNKTVHFHVIMIKINGRWFLHSVHIHID”, for which the protease stability score came out at 1.11.

Turning to “DEEERYIIEMLRILAEAILTGDEDETHNQLDPDVRIEWNGVELHGRDELLRFMHHLRIDIKRVEFRSITKVDGRVHTDGLLDVTYFIDGRVFRRRTHTELIILKVDGRWTFHSIKID”, the protease stability score is 2.19.

Consider “DEEESIERELSRRWLHWFITGDEERAKKLADPRARYHQGDKEIHGWDNLRKFLFEILEKIPNLRIIIRDSDVINGRIHYDTELHIDGVHIKTHLIIVIVDGRLKELHVEEH”, for which the protease stability score was determined as 0.06.

Regarding “DEEESRIEKVNRRWLRAYATGDEDTLNHLIDPRVRMDIDGVDLHGREEFEEWLRRIDVIRTFELKFMHIQGEKVNNDVQFDTRIDGQNRSVRNKLIIEKVDGKWVVKTIHFI”, the protease stability score stood at 0.228.

On to “DEEHDIDRKIFEMIVDVFLTGDWKRWFDNADPDVKTEIRIGDKKIDLHGWEFFLRFLEEELRRFKNIQIMSTDVKLFNGKVDVNIEIRIGDKTQHYIYHIHTFNGVIKHVHVHSK”, for which the protease stability score was determined as 1.28.

Turning to “DEEHEAIEQFLRIIIENARTGNEEFLYKYFDPHVRIHIDGQNMVGREEWVEWLRQIRHQVDSFHIKHIEVQGDKLILEGHLEIKLHINGQELHKHVEVRYEINKVNGRWLLRSVHIK”, the protease stability score was found to be 1.74.

“DEEHEDAVRIWEEFLEAVITGDWDRLKTLLDPNVRLHQGDFEIHGREKIVKTIHEMRIHIHDHRFRDSHFINGRVKLHVESDKEIIYGNKKTRLTVHVTVIIHKVNGVWLVHSVHVE” yielded a protease stability score of 0.986.

The sequence “DEEHEDMDKYSKLLVEMLKTGDEHIFKILADPHVRIDINGREYHGWEDWVEVVRELRIHRLHFTHMEIQGDKLHLHLKSKFSFDGRVHEIEIRIHAKKVNGRWVIKEIRII” gave a protease stability score of 2.29.

As to “DEEHEELKKMVQHSLQLLMTGDEETIYHLLDPHAKVIINGVEYHGMSLSAKIMIKMARDLGVERFEVHLEHSRWFDGRVDVHISRRVNGQTEEVHINSKKINGRWHLKSIIFN”, the protease stability score was 1.06.

“DEEHEETHRWVELFIRHHLTGDEDFIMKMLDPNTRWHIDGRTFHGMETVFDARKKERNKLGADHVRFTSFEIQGDFLHILGSIHIDGKELDEKIIIEVIDGRLNSILVTRR” gave a protease stability score of 0.661.

“DEEHEEVERMWERFIKYYLTGNEELFDHLADPNVRLIIGDKIAIGREEVRKLWERRRREIRIRHMNFHSVRWYDGRIDLEVEVNLDVNGREIKTEQRIHIKVINGRVKDVEIRVE”: the protease stability score is 0.743.

The sequence “DEEHEEYHRMFRVVEHAYRTGDWKTLSDYMDPNAKQTVGNKEYHGREQVDESLKRLGIKVTDVEDSKEDHINGRLVVRLDQHLEVNGRRIKIHVLIIIIKINGRWIITENMYIFH” returned a protease stability score of 0.141.

With “DEEHEEYMDWAIIHLHDWLTGDEDHHNELADPNDRLELVIGDKRIERIGREEVTKQLHEFRKHMRVHRIEIKTRNVYNGKAHLHGIMHFRVGDKKYDVETHIVIVIINGVLKQVKIEIR”, the protease stability score was determined as 0.773.

Regarding “DEEHEFLITMVKLVSTWFLTGDFETYIDLADPNTRQHVNGRYSVGREDAVKLEEEMLREIRIRDIRVKHIIRQGDKIELEFRFHMEVDGRVEDITVEVRIFLVNGRLHFLEIRFD”, the protease stability score turned out to be 0.743.

Consider “DEEHEFMRKMSEEFVHIWLTGDEERLIKLLDPNAKLNIDGVEHHGWKEVHRYLKELKEELGVDHFHVRRITIRYIDGVAISIVHYESHINGRHHELEIHNVVNKIDGRWHLQSIHIHFH”, for which the protease stability score turned out to be 2.16.

Turning to “DEEHEHAKRAVKKTLTDYYTGDEDSISDLADPNVIQDVGDKEYHGREEFLRSMHKIIKWLGVDHIEVHRVHLINGRVFSRLRLEVDGREVELIIIILKINGRWHWHSMRIIHR”, the protease stability score amounted to 1.03.

Sequence “DEEHEHLHKWLDMLLYAHKTGDPEVILKNADPHVRSEVDGREVHGMEKFARDLYEMRIHRIHIKDVKTIGNKLDVDGRLDGEFNGKRVDSDVHLHLVVIDGRLHSLHIKHR” registered a protease stability score of 0.558.

In turn, “DEEHEHLKELARLILKWWYTGDEQHMLELADPNVRSHVNGVHLVGREEMMKVWVEVLEFLGADHVEDKRSSIQGDKTILHTSHHVNGKEIEVDVDIRIVDGKDHTLEFRIK” displayed a protease stability score of 1.44.

In turn, “DEEHEHQHEFAQIIMEMWKTGDWKTMFKLADPNARTIFEGRRLHGRELIWEFLFRLLKKLGVDHEKDRHSHNIGDKIHIHGEEEIGDKKVEVHIHIVIFNGRVKELEIRRREL” returned a protease stability score of 0.511.

“DEEHEIIRKMFEIVKDMFKTGDEEITERLLDPNARIDIDGRDIVGRESVLWLFSQFKNLRHRDDRIDYQGNFVIVRGKLDINGRRVEIEIVAAKVDGRWILHSIKMQ” gave a protease stability score of 1.43.

In turn, “DEEHEINRRIAEWWLHSVKTGDEESIENNADPNTRIVVNGVHFHGMEESHKWLHEFLRRFKNATLEIHSMEVINGVTHIHGTLVQGDKRIRVHIHVHVINGRIHTISHEHR” showed a protease stability score of 1.27.

Consider “DEEHEIVELIMRIFLHAVLTGDWELIEKLADPNVRIIIRINGQEIHFHGREHLRHRFEHLRIDRMEIHDYKNVGDWLDIDGRENGNFNGRKHETRVHIHIRVINGKLHELRVTYR”, for which the protease stability score came to 1.68.

“DEEHEKLYQDLEYWVKMVRTGDEDSHLEYADPDVRLDVNGQQFIGREEFTRFFRTLSRELGLDNINFRIKDIRNVGDKIDIDGHREINGRRVRIILVAWKFNGRWYLHEERIR” registered a protease stability score of 1.39.

Regarding “DEEHELLEHWLRLFEEAFSTGDWRIMARLIDPNARLEIGEKDHHGREELIKFMLRVDHIDDFRLHEKDRTEIDGRLRMNGNNEVQGTVNGQKRNITIDIHIVVVKVDGRWFVERIRIR”, the protease stability score is 1.3.

Sequence “DEEHELTRKVLTEMWEIFMTGDWKRWHELLDPHVRFVYVQGEFEDVHHGREEVKRLFDKLLKDLGFKHSELTDTRLVGNKAVIDGTIHVGDKIYDFHLNVLVVNGKVKTIEVEIREK” showed a protease stability score of 1.94.

For the sequence “DEEHEMAKRASEKFVKDWVTGNFEVLRENLDPHVRLDINGVKVHGRELVWHYIAKRLRFMGVDHTEMEVHHREVQGNKLITDMEERIHVGDYHEERRVVLISQKINGKWLVKSIHEE”, the protease stability score worked out at 1.56.

“DEEHEMIQTHLRLFHEALLTGDEEELHRLLDPNVRVDIGDKHLHGREVVIHWMRQIRVKHLDLDLDHERSVNGRVDIKGTLRSDVIINGQRHKTSHTLHFHATKINGRWFIKEYIVD”: the protease stability score worked out at 2.06.

Turning to “DEEHEQLERLARDYMHSTETGDEESIRRFFDPHTRYDIDGKESHGWEMIKHWMEEWRIDSVTIHSIHRINGVAHIDVTVHGEIGDKQTTFRVIIDLVIVNGKVHEIRIIFE”, the protease stability score is -0.086.

With “DEEHEVLRRMVERIREMEKTGDWERYATMADPNTRVDVNGVELHGMENVAFWFWLHLYRHGIEIKDIRVRDIKVQGEKYQEDGELYGHINGQTTILEVHLEITFVNGRIHSEKISIK”, the protease stability score amounted to 1.25.

In the case of “DEEHEWAQLVIQLFFEALHTGDEKTLHELMDPEVKVNVDGRELHGREEVMEWFEELIRQYKNAKIHLHIHRVEYVGNKVIIRGELHFRYGDKEERIDRILHVLKVDGRWLIREIEHR”, the protease stability score worked out at 1.51.

In turn, “DEEHEWAQRIIEYLSKNEKTGDEDSARELADPNMRFEIDGVEIVGMETWVRRFLELRVEDLTMDVEHIHVQGNFVHIQTRLELHGHINGRRTRYTTTMRLFVLKINGKWIITHVKYE” showed a protease stability score of 1.45.

“DEEHEWMHIMMELLLRAFETGDPDLFEHLADPNTRLQIGDKTIHGRTKVSTWLHREIRRADHLEIRLREYDYQGDKLEMKTELIIQQGDKQVQLETRVIIIKINGRWFLESIEIN” gave a protease stability score of 1.23.

In turn, “DEEHHDARRIIEEFITLLKTGDEENLDEYLDPNVRIEFNGRDLHGMEWFLHFLREIRFRDDDHKRIQVKVINGQVHILIKMHVDGVWDGRRKISDVHLHFTVVKVDGRWRFTSIHVHIE” showed a protease stability score of 1.35.

With “DEEHHDLQEFFERLKRHWETGDWKEITKNFDPNVKERYGDFEVHGREEAIRKAKEMRYNDMDIRHRRVIDGRAYLHTEMDGNFDGRERRFEVEMIITKIDGVWRIKHVTFK”, the protease stability score was 1.06.
